Legend:
[1] = biological target: GST-emerin (amino acids 1–176, lacking the TM domain) (UniProt P50402); assay: reverse GST pull-down with western blot densitometry; conditions: lysates of U2OS cells transfected with GFP-nesprin-1α2 WT or mutant; three independent experiments, mean ± SEM; parent: est. 1.0; read off a plot
[2] = biological target: GST-lamin A (amino acids 356–665, containing nesprin-1/2 binding domain) (UniProt P02545); assay: as above; conditions: lysates of U2OS cells transfected with GFP-nesprin-1α2 WT or mutant; three independent experiments, mean ± SEM; parent: est. 1.0; read off a plot
Myc-SUN2 (full length) = Myc-SUN2 (full length) (UniProt Q9UH99); assay: GST pull-down with western blot densitometry; conditions: lysate of U2OS cells transfected with Myc-SUN2 (full length); three independent experiments, mean ± SEM; parent: est. 1.0; read off a plot
emerin (endogenous) = emerin (endogenous) (UniProt P50402); assay: GST pull-down with western blot densitometry; conditions: U2OS cell lysate; three independent experiments, mean ± SEM; parent: est. 1.0; read off a plot
[3] = biological target: lamin A/C (endogenous, U2OS lysate; lamin A and lamin C bands quantified together); assay: GST pull-down with western blot densitometry; conditions: U2OS cell lysate; three independent experiments, mean ± SEM; parent: est. 1.0; read off a plot

UniProt Q9UH99, sequence (Q9UH99 whole entry): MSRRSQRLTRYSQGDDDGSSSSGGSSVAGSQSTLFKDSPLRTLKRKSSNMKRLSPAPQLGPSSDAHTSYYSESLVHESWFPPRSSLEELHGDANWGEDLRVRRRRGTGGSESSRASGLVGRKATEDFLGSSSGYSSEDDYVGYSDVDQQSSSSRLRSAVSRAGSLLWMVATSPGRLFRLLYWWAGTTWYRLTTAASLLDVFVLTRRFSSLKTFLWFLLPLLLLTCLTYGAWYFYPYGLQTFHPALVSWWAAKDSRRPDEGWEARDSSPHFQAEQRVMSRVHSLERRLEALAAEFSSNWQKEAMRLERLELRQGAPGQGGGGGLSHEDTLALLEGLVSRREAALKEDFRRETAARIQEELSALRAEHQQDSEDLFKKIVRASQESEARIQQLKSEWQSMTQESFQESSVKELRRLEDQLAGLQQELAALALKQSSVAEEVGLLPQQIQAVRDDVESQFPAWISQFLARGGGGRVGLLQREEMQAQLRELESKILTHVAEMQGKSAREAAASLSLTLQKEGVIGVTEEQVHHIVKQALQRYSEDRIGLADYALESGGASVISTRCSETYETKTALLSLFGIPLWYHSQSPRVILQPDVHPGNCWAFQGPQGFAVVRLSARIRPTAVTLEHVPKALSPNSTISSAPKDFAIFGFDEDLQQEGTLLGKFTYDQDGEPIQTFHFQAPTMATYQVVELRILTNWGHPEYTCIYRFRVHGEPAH
UniProt P02545, sequence (P02545 356-664): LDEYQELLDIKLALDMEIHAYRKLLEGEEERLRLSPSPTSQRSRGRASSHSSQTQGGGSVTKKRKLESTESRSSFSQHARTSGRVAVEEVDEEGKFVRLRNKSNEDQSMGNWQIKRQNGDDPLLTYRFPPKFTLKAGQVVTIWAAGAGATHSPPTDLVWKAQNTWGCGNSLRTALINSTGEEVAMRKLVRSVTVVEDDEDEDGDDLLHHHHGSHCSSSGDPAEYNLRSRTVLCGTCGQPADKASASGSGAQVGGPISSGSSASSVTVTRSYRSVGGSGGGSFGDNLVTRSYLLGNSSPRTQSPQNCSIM

| Substance | ratio to parent [1] | ratio to parent [2] | ratio to parent (Myc-SUN2 (full length)) | ratio to parent (emerin (endogenous)) | ratio to parent [3] |
| --- | --- | --- | --- | --- | --- |
| GFP-tagged nesprin-1α2 WT N8406K | 1.1 | 0.31 |  |  |  |
| GFP-tagged nesprin-1α2 WT R8272Q | 1.1 | 0.33 |  |  |  |
| GFP-tagged nesprin-1α2 WT S8381C | 0.93 | 0.17 |  |  |  |
| GST-tagged WT nesprin-1α2 SR1-6 (lacking KASH domain) N8406K |  |  | 0.15 | 1.2 | 0.17 |
| GST-tagged WT nesprin-1α2 SR1-6 (lacking KASH domain) R8272Q |  |  | 0.25 | 1 | 0.18 |
| GST-tagged WT nesprin-1α2 SR1-6 (lacking KASH domain) S8381C |  |  | 0.19 | 0.87 | 0.12 |

Reference: paper PMC5458344
